The record followed here is publication PMC9923923 (2023).

Broadly, the Kd is the concentration at which binding is half-saturated. A higher Kd goes with a looser complex.

One assay concerns the target TLR4 (Homo sapiens, UniProt O00206). Kind of assay: SPR. Background: In SPR one partner is held on a chip, and binding of the other changes the refractive index at the surface.
Another assay concerns the target TLR4/MD2 complex (Homo sapiens, UniProt O00206). Kind of assay: SPR.

Chain of TLR4 (O00206 24-839): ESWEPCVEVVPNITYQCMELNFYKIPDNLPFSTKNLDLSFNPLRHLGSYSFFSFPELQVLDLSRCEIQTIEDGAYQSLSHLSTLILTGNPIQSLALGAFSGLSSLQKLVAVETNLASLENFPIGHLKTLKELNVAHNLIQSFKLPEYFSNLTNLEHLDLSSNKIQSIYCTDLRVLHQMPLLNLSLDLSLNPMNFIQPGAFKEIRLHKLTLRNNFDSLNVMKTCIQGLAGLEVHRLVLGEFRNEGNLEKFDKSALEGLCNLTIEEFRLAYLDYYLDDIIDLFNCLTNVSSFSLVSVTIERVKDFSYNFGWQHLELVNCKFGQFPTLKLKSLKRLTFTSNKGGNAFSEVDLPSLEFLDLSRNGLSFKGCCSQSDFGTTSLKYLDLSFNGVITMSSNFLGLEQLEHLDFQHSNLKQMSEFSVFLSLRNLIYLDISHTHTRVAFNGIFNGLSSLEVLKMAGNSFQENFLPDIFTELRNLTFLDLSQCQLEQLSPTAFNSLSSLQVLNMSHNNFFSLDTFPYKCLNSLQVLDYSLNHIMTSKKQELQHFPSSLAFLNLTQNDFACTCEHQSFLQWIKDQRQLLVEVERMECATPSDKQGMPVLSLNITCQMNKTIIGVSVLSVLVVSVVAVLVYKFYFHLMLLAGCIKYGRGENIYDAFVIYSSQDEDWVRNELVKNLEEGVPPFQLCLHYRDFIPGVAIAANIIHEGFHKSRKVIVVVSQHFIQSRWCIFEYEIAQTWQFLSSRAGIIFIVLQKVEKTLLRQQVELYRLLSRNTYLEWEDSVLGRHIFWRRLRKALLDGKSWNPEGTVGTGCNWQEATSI
Chain of TLR4/MD2 complex (O00206 24-839, chain 1 of 2): as the sequence (O00206 24-839) above
Chain of TLR4/MD2 complex (chain, as listed by the source, chain 2 of 2): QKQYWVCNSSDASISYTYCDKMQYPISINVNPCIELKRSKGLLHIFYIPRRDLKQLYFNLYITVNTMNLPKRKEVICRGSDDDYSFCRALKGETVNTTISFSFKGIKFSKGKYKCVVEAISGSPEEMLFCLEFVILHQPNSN

B1: eCIRP (protein)
chain: MASDEGKLFVGGLSFDTNEQALEQVFSKYGQISEVVVVKDRETQRSRGFGFVTFENIDDAKDAMMAMNGKSVDGRQIRVDQAGKSSDNRSRGYRGGSAGGRGFFRGGRSRGRGFSRGGGDRGYGGGRFESRSGGYGGSRDYYASRSQGGSYGYRSSGGSYRDSYDSYATHNE
modifications: 5 nM PS-OMe miR130 (value in text)
B1 returned a Kd in the assay with TLR4 of 612 nM.

B2: eCIRP (protein)
chain: B1 chain
modifications: 5 nM PS-OMe miR130 (value in legend)
For B2, binding with TLR4 was characterised by a dissociation constant (Kd) of 139 nM.

B3: eCIRP (protein)
chain: B1 chain
modifications: 5 nM PS-OMe miR130
Consider B3, for which the Kd with TLR4/MD2 complex is 113 nM.

B4: eCIRP (protein)
chain: B1 chain
Take B4: the Kd with TLR4/MD2 complex amounted to 20 nM; in the assay with TLR4, 69.7 nM.
